These results are taken from the supplement of paper PMC10567573.

B1: EHMT1 (parent)
chain: SARQGELQKVLLMLVDGIDPNFKM
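Further: lentivirally expressed fusions sorted by FACS into six bins by GFP to DsRed ratio, PSI derived from sequencing read proportions per bin multiplied by bin number.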

Variants of B1 are the subject of this data set. Put plainly: protein stability index of a GFP-peptide fusion (GPS, HEK-293T) (PSI 1-6); higher = more stable. Conditions: c terminus: a fixed tail appended.
As to SARQGETQKVLLMLVDGIDPNFKM [L7T], the protein stability index turned out to be 1.62. Consider SARQGEEQKVLLMLVDGIDPNFKM [L7E], for which the protein stability index amounted to 2.35.

Take SARQGEKQKVLLMLVDGIDPNFKM [L7K]: the protein stability index was 1.67. SARQGEFQKVLLMLVDGIDPNFKM [L7F]: the protein stability index stood at 1.04. The figure for SARQGEQQKVLLMLVDGIDPNFKM [L7Q] is 1.7. Turning to SARQGERQKVLLMLVDGIDPNFKM [L7R], the protein stability index amounted to 2.12. Consider SARQGENQKVLLMLVDGIDPNFKM [L7N], for which the protein stability index was 1.36.

As to SARQGEAQKVLLMLVDGIDPNFKM [L7A], the protein stability index came out at 1.91. For the variant SARQGESQKVLLMLVDGIDPNFKM [L7S], the protein stability index amounted to 1.43. With SARQGEVQKVLLMLVDGIDPNFKM [L7V] the figure was 1.03; with SARQGEMQKVLLMLVDGIDPNFKM [L7M], 1.27.

For the variant SARQGEHQKVLLMLVDGIDPNFKM [L7H], the protein stability index came to 3.17.

Take SARQGEIQKVLLMLVDGIDPNFKM [L7I]: the protein stability index amounted to 2.81. Turning to SARQGEPQKVLLMLVDGIDPNFKM [L7P], the protein stability index came out at 1.84. As to SARQGECQKVLLMLVDGIDPNFKM [L7C], the protein stability index worked out at 1.03. Regarding SARQGEYQKVLLMLVDGIDPNFKM [L7Y], the protein stability index came out at 1.5.

Turning to SARQGEDQKVLLMLVDGIDPNFKM [L7D], the protein stability index was 2.19. Turning to SARQGEGQKVLLMLVDGIDPNFKM [L7G], the protein stability index is 1.59. Consider SSRQGELQKVLLMLVDGIDPNFKM [A2S], for which the protein stability index was 3.14. Regarding SQRQGELQKVLLMLVDGIDPNFKM [A2Q], the protein stability index worked out at 1.78. With SRRQGELQKVLLMLVDGIDPNFKM [A2R] the figure was 1.28. The figure for SPRQGELQKVLLMLVDGIDPNFKM [A2P] is 2.31; for STRQGELQKVLLMLVDGIDPNFKM [A2T] it is 3.06.

As to SVRQGELQKVLLMLVDGIDPNFKM [A2V], the protein stability index was 1.75.

For the variant SARQGQLQKVLLMLVDGIDPNFKM [E6Q], the protein stability index is 1.87. As to SARQGILQKVLLMLVDGIDPNFKM [E6I], the protein stability index amounted to 3.51.

Take SARQGMLQKVLLMLVDGIDPNFKM [E6M]: the protein stability index is 2.91.

SARQGSLQKVLLMLVDGIDPNFKM [E6S]: the protein stability index turned out to be 2.6.

As for SARQGYLQKVLLMLVDGIDPNFKM [E6Y], the protein stability index was 3.65. The figure for SARQGTLQKVLLMLVDGIDPNFKM [E6T] is 2.4; for SARQGHLQKVLLMLVDGIDPNFKM [E6H] it is 2.02. On to SARQGPLQKVLLMLVDGIDPNFKM [E6P], for which the protein stability index came to 2.45. Consider SARQGFLQKVLLMLVDGIDPNFKM [E6F], for which the protein stability index came to 2.34. On to SARQGDLQKVLLMLVDGIDPNFKM [E6D], for which the protein stability index was found to be 1.69.

SARQGWLQKVLLMLVDGIDPNFKM [E6W]: the protein stability index was determined as 1.89. With SARQGLLQKVLLMLVDGIDPNFKM [E6L], the protein stability index came to 1.99. As for SARQGNLQKVLLMLVDGIDPNFKM [E6N], the protein stability index was 2.15. With SARQTELQKVLLMLVDGIDPNFKM [G5T], the protein stability index amounted to 3.12. On to SARQMELQKVLLMLVDGIDPNFKM [G5M], for which the protein stability index amounted to 3.61. Regarding SARQFELQKVLLMLVDGIDPNFKM [G5F], the protein stability index is 1.98. For the variant SARQIELQKVLLMLVDGIDPNFKM [G5I], the protein stability index turned out to be 3.95. Turning to SARQNELQKVLLMLVDGIDPNFKM [G5N], the protein stability index came to 2.26.

As for SARQRELQKVLLMLVDGIDPNFKM [G5R], the protein stability index was found to be 3.6.

For the variant SARQEELQKVLLMLVDGIDPNFKM [G5E], the protein stability index came to 1.59.

Turning to SARQPELQKVLLMLVDGIDPNFKM [G5P], the protein stability index is 3.53. Take SARQHELQKVLLMLVDGIDPNFKM [G5H]: the protein stability index is 1.97. With SARQDELQKVLLMLVDGIDPNFKM [G5D], the protein stability index came out at 1.94. Regarding SARQWELQKVLLMLVDGIDPNFKM [G5W], the protein stability index was found to be 2.55. Turning to SARQYELQKVLLMLVDGIDPNFKM [G5Y], the protein stability index is 1.92. Consider SARQCELQKVLLMLVDGIDPNFKM [G5C], for which the protein stability index worked out at 1.79. As for SARQSELQKVLLMLVDGIDPNFKM [G5S], the protein stability index turned out to be 1.64.

For the variant SARQAELQKVLLMLVDGIDPNFKM [G5A], the protein stability index amounted to 2.65. The figure for SARQQELQKVLLMLVDGIDPNFKM [G5Q] is 1.93; for SACQGELQKVLLMLVDGIDPNFKM [R3C] it is 1.83; for SAWQGELQKVLLMLVDGIDPNFKM [R3W] it is 3.4. For SADQGELQKVLLMLVDGIDPNFKM [R3D], the protein stability index is 1.78. SAQQGELQKVLLMLVDGIDPNFKM [R3Q]: the protein stability index stood at 2.25.

As to SALQGELQKVLLMLVDGIDPNFKM [R3L], the protein stability index was 2.39. The figure for SASQGELQKVLLMLVDGIDPNFKM [R3S] is 1.75; for SAEQGELQKVLLMLVDGIDPNFKM [R3E] it is 2.2.

Consider SAIQGELQKVLLMLVDGIDPNFKM [R3I], for which the protein stability index is 2.15. With SAFQGELQKVLLMLVDGIDPNFKM [R3F] the figure was 1.86; with SAAQGELQKVLLMLVDGIDPNFKM [R3A], 1.96.

SATQGELQKVLLMLVDGIDPNFKM [R3T]: the protein stability index stood at 1.76. Turning to SAKQGELQKVLLMLVDGIDPNFKM [R3K], the protein stability index came out at 2.8. Turning to SANQGELQKVLLMLVDGIDPNFKM [R3N], the protein stability index came to 2.38. Regarding SAPQGELQKVLLMLVDGIDPNFKM [R3P], the protein stability index was determined as 2.83. In the case of SAYQGELQKVLLMLVDGIDPNFKM [R3Y], the protein stability index worked out at 1.88. For SAHQGELQKVLLMLVDGIDPNFKM [R3H], the protein stability index worked out at 1.5.

As to SAGQGELQKVLLMLVDGIDPNFKM [R3G], the protein stability index came to 1.86. SARKGELQKVLLMLVDGIDPNFKM [Q4K]: the protein stability index was 1.35. With SARLGELQKVLLMLVDGIDPNFKM [Q4L], the protein stability index is 3.17. On to SARMGELQKVLLMLVDGIDPNFKM [Q4M], for which the protein stability index amounted to 3.05. SARIGELQKVLLMLVDGIDPNFKM [Q4I]: the protein stability index came to 2.56. With SARAGELQKVLLMLVDGIDPNFKM [Q4A] the figure was 2.27; with SAREGELQKVLLMLVDGIDPNFKM [Q4E], 1.94. As to SARFGELQKVLLMLVDGIDPNFKM [Q4F], the protein stability index turned out to be 3.15.

SARDGELQKVLLMLVDGIDPNFKM [Q4D]: the protein stability index is 1.61.

Consider SARCGELQKVLLMLVDGIDPNFKM [Q4C], for which the protein stability index was 2.29.

On to SARYGELQKVLLMLVDGIDPNFKM [Q4Y], for which the protein stability index worked out at 1.94. With SARPGELQKVLLMLVDGIDPNFKM [Q4P] the figure was 2.15; with SARSGELQKVLLMLVDGIDPNFKM [Q4S], 1.53; with SARTGELQKVLLMLVDGIDPNFKM [Q4T], 2.01. The figure for SARGGELQKVLLMLVDGIDPNFKM [Q4G] is 1.83. As for SARNGELQKVLLMLVDGIDPNFKM [Q4N], the protein stability index stood at 1.6. In the case of SARQGELFKVLLMLVDGIDPNFKM [Q8F], the protein stability index is 3.86. In the case of SARQGELLKVLLMLVDGIDPNFKM [Q8L], the protein stability index turned out to be 3.28. Take SARQGELGKVLLMLVDGIDPNFKM [Q8G]: the protein stability index was 2.25. With SARQGELIKVLLMLVDGIDPNFKM [Q8I] the figure was 2.01; with SARQGELKKVLLMLVDGIDPNFKM [Q8K], 1.57; with SARQGELNKVLLMLVDGIDPNFKM [Q8N], 2.23. On to SARQGELEKVLLMLVDGIDPNFKM [Q8E], for which the protein stability index was found to be 2.73. With SARQGELHKVLLMLVDGIDPNFKM [Q8H] the figure was 1.93. In the case of SARQGELDKVLLMLVDGIDPNFKM [Q8D], the protein stability index was found to be 1.43.
